“Also recorded” adds a separate entry of the source.
Assays:
P. cinnamomi = experiment: Potted young cork oak inoculated with P. cinnamomi, extension of root lesions; assay type: in vivo, Quercus suber; settings: plants sprayed; for root lesion severity: compared with inoculated control
Experimental: In a separate experiment, potted young cork oak plants (Quercus suber) were inoculated with P. cinnamomi and incubated under greenhouse conditions. The plants were sprayed with potassium phosphonate, salicylic acid, Blad and other compounds/extracts under study. The severity of the infection was assessed by quantifying the extension of plant root lesions.

P. chlamydospora = experiment: Pruning wound protection under real vineyard conditions, wounds brushed with P. chlamydospora spores; assay type: in vivo, grapevine; settings: for fungi re-isolated in vitro from the treated wood: culture-dependent methods
Experimental: In an experiment designed as an attempt to protect pruning wounds from esca fungal infection, a couple of surprising observations were made when immediately after pruning under real vineyard conditions, the fresh wounds were brushed with 50 μl of water (control), or of Blad, the commercial fungicide Switch or copper oxychloride solutions (24 replicates for each treatment), and 24 h, 1 month and 2 months afterwards the pruning wounds were brushed with P. chlamydospora spore suspensions. […] On top of that, the diversity of fungi that could be re-isolated in vitro (using culture-dependent methods) from that wood was also lower. […] This remarks the efficient fungicide activity of the two chemicals on P. chlamyobspora, although this fungus seems to be less affected than other natural endophytes of the grapevine. The applicant's analyses of the mycobiome by metabarcoding using Illumina® next-generation sequencing (NGS) techniques detected only minor changes in some taxa composition and in colonization success of some endophytes in grapevine wood after a single copper application. The copper/systemic fungicides didn't change the mycobiome composition in major ways and didn't even directly advantage the pathogen.

external fungi = experiment: Fungicides in vitro on potato dextrose agar Petri dishes; assay type: cell-based; settings: PDA plus individual fungicides
grapevine wood mycobiome = experiment: Grapevine wood mycobiome composition and networks after fungicide treatments (metabarcoding); assay type: in vivo, Vitis vinifera cv Cabernet Sauvignon; settings: foliar application / spray
Source text: Wood samples were carefully collected from grapevine rooted cuttings of Vitis vinifera cv Cabernet Sauvignon grown under greenhouse conditions, which underwent different inoculations and fungicide treatments and their mycobiomes identified by metabarcoding using Illumina® next-generation sequencing (NGS) techniques. The barplots represented in FIG. 2 show the relative abundances of grapevine wood taxa in plants subjected to different fungicide treatments and inoculation types.
FIG. 4 illustrates the effect of fungicide applications on the grapevine wood relative taxa abundance.
In FIG. 4, the differential heat tree matrix depicts the changes in taxa abundance between different fungicide treatments. The size of the individual nodes in the grey cladogram depicts the number of taxa identified at that taxonomic level. The smaller cladograms show pairwise comparisons between each treatment, with the colour illustrating the log2 fold change: a red node indicates a lower abundance of the taxon in the tissue group stated on the abscissa, than in the tissue group stated on the ordinate. A blue node indicates the opposite.
The networks presented in FIG. 5 show how Blad creates a different link among taxa, when compared with control and other fungicides.

[1] = Growth of nine-week-old carrots in soil with skopobiota-loaded bentochar, with or without Blad spray; assay type: in vivo, carrot cv Nantes
Experimental: (§1) Twelve carrot seeds cv Nantes were sown in soil containing the different combinations of SLB described above, as well as in positive and negative controls, for a total of 12 treatments (see below). Four weeks after sowing, six mycelium plugs of Trichoderma gamsii were added to each treatment tests, with the exception of the ‘negative control’.
Nine weeks after sowing, carrots were examined for three parameters: (1) above-ground growth, (2) number of fully unfolded leaves, and (3) presence of necrotic lesions or browning in roots.
(§2) Similarly to what described in section ‘Effects on the growth of nine-week-old carrots’, the same skopobiota-loaded bentochar treatments were tested also in combination with a weekly spray of Blad on carrot leaves. The tested Blad concentration was 2 mL Blad per L of water.
The same parameters described in ‘Effects on the growth of nine-week-old carrots’ were assessed.

Trichoderma gamsii = experiment: Root browning and necrotic lesions score in carrot roots; assay type: in vivo, carrot cv Nantes
Experimental: as §1
A combination of factors, in which the presence of Trichoderma gamsii was determinant, induced the presence of root browning and necrotic lesion, as shown in FIG. 32.
Carrot roots of each biological replicate, grown under different treatments, were examined to assess differences in the development of root browning and necrotic lesions.
as §2

[2] = Early growth at bud break after application onto pruning wound; assay type: in vivo, grapevine; settings: 50 μl onto the pruning wound, one treatment per plant
Experimental: The photos were taken at the same plant a couple of months later, at bud break. Compare with the natural development state of the vineyard in the background. Twenty-four replicates were prepared for each treatment.

[3] = test system: Phaeomoniella chlamydospora; experiment: Relative abundance of P. chlamydospora in wood of potted grapevine cuttings (metabarcoding, greenhouse); assay type: in vivo, Vitis vinifera cv Cabernet Sauvignon; settings: for relative abundances (%) of P. chlamydospora: fungicide treatment per column
Source text: Wood samples were carefully collected from grapevine rooted cuttings of Vitis vinifera cv Cabernet Sauvignon grown under greenhouse conditions, which underwent different inoculations and fungicide treatments and their mycobiomes identified by metabarcoding using Illumina® next-generation sequencing (NGS) techniques.
On top, barplots grouped by ‘Inoculation’ type; bottom, barplots grouped by ‘Fungicide’ treatment.
In a subsequent experiment (see also below), potted vines were co-inoculated with P. chlamydospora and a skopobiota (spore suspensions from four fungal species naturally occurring in the grapevine microbiome).
C22 and Aureobasidium pullulans AU86. All fungi were maintained in Petri dishes with vents, on potato dextrose agar medium (Difco™), at 25° C., in the dark.

[4] = With Blad, weekly spray on leaves, 2 mL Blad per L of water

potassium phosphonate [reference compound]
root lesion severity (P. cinnamomi): lower than the inoculated control

O=C(O)c1ccccc1O [salicylic acid, reference compound]
root lesion severity (P. cinnamomi): lower than the inoculated control

[Cl-].[Cu+2].[Cu+2].[OH-].[OH-].[OH-] [copper, copper oxychloride]
fungi re-isolated in vitro from the treated wood (P. chlamydospora): nothing but P. chlamydospora could be re-isolated
brown streaking of artificially infected shoots (P. chlamydospora; fresh pruning wounds brushed with 50 μl, then P. chlamydospora spores): darker brown streaking
contamination of PDA Petri dishes containing the fungicide (external fungi): to a minor extent

B1: Blad: 173-residue polypeptide (SEQ ID NO: 4), residues 109-281 of Lupinus β-conglutin precursor; main subunit of the 210 kDa oligomer BCO (protein)
chain: ARGARGGLNARGASNPRTYRHISPHESERSERGLNARGPHEGLNTHRLETYRLYSASNARGASNGLYLYSILEARGVALLEGLARGPHEASPGLNARGTHRASNARGLEGLASNLEGLNASNTYRARGILEVALGLPHEGLNSERLYSPRASNTHRLEILELEPRLYSHISSERASPALAASPTYRVALLEVALVALLEASNGLYARGALATHRILETHRILEVALASNPRASPARGARGGLNALATYRASNLEGLTYRGLYASPALALEARGILEPRALAGLYSERTHRSERTYRILELEASNPRASPASPASNGLNLYSLEARGVALVALLYSLEALAILEPRILEASNASNPRGLYTYRPHETYRASPPHETYRPRSERSERTHRLYSASPGLNGLNSERTYRPHESERGLYPHESERARGASNTHRLEGLALATHRPHEASNTHRARGTYRGLGLILEGLNARGILEILELEGLYASNGLASP
root lesion severity versus non-inoculated control (P. cinnamomi): did not differ significantly from the non-inoculated control
root lesion severity (P. cinnamomi): only treatment producing excellent results on the infection levels; also recorded: lower than the inoculated control
root lesion severity (P. cinnamomi; listed as BLAD): lowest lesion severity
changes in the grapevine wood mycobiome (grapevine wood mycobiome): created a different network of interactions in the wood mycobiome; also recorded: induced marked changes in the grapevine wood mycobiome
Above-ground growth (% of control) Mean ± SD [1, 4]: 98% ± % of control
Number of leaves (% of control) Mean ± SD [1, 4]: 108% ± % of control
number of leaves of carrots ([1]; in words, compared with treatments without Blad): increases the overall number of leaves
above-ground growth of carrots ([1]; in words, weekly spray with Blad): positively affected
Total score of root symptoms (Trichoderma gamsii; With Blad, weekly spray, 2 mL Blad per L of water): 2
root symptomatology compared with the positive control (Trichoderma gamsii; in words): strongly reduced the development of root symptoms
early growth several months after pruning [2]: boost observed in the early growth
relative abundances (%) of P. chlamydospora ([3]; NO-INOCULATION, potted rooted grapevine cuttings, greenhouse): 3.78%
relative abundances (%) of P. chlamydospora ([3]; inoculated with P. chlamydospora + skopobiota at separate locations in the trunk): 1.34%
relative abundances (%) of P. chlamydospora ([3]; inoculated with P. chlamydospora alone): 6.31%
relative abundance of P. chlamydospora ([3]; potted vines co-inoculated with P. chlamydospora and a skopobiota (four fungal species)): 1%
relative abundance of the inoculated pathogen ([3]; potted vines inoculated with P. chlamydospora and sprayed): 6%
fungi re-isolated in vitro from the treated wood (P. chlamydospora): many other endophytes

— US20220408730A1, “PLANT TREATMENT” (INSTITUTO SUPERIOR DE AGRONOMIA, priority 2019, published 2022)
